The text below walks through data of US20180298070A1, “PEPTIDE COMPOUND” (Takeda Pharmaceutical Company Limited, published 2018).

Non-standard residues stand in square brackets, D forms with d. Groups on a side chain read outwards from the residue. Primed or numbered codes have the meaning given here. No end group written: not given here. *: point of attachment. C20 diacid = O=C(O)CCCCCCCCCCCCCCCCCCC(=O)*; NMeY = CN[C@@H](Cc1ccc(O)cc1)C(=O)O; Stearoyl = CCCCCCCCCCCCCCCCCC(=O)*; αMeF = C[C@](N)(Cc1ccccc1)C(=O)O; dIva = CC[C@@](C)(N)C(=O)O; Iva = CC[C@](C)(N)C(=O)O; PEG2′ = not defined here; Aib = CC(C)(N)C(=O)O

Assay [1] has as its target T1, human GIPR (human), P48546.
T1 chain: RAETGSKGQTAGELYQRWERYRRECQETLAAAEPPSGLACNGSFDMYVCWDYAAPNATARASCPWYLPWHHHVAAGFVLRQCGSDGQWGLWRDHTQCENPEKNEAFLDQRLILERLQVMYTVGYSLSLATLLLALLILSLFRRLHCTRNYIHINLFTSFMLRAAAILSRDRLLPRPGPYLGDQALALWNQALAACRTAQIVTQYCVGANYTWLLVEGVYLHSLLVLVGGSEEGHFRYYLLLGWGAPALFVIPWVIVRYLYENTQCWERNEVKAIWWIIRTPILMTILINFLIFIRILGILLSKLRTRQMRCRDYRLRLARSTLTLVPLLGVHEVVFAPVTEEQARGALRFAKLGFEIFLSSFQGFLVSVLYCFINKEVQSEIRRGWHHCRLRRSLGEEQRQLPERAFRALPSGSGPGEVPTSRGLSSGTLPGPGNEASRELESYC

For assay [2], the target named is T2, human GLP-1R (human), P43220.
T2 chain: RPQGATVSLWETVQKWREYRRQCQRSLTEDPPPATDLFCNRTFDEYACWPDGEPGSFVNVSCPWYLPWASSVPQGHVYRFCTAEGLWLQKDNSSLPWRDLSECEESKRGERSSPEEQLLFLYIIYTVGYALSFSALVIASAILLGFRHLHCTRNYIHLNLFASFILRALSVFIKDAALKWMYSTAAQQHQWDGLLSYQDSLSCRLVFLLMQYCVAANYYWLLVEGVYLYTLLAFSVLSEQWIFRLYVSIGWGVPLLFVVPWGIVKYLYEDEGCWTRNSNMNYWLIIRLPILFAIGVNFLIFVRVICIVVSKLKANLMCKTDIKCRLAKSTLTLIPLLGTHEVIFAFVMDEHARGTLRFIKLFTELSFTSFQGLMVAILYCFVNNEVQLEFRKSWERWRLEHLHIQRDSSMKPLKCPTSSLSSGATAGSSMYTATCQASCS

For Me-Y[Aib]EGTFISDYSIALDR[Aib]AQ[Aib]SFVNW[Iva]LAQRPSSGAPPPSR (not fully specified (residue 1, C-terminus); ends and bridges not checked) [Compound 126], the Agonist activity (EC50, M) in assay [1] is 2.1e-12 M; in assay [2], > 1e-06 M.
On to [NMeY][Aib]EGTFISDYSIALDR[Aib]AQQD[αMeF]VNWLLAQRPSSGAPPPSR (not fully specified (C-terminus); ends and bridges not checked) [Compound 73], for which the Agonist activity (EC50, M) was 1.4e-12 M in assay [1] and > 1e-06 M in assay [2].
For [NMeY][Aib]EGTFISDYSIALDRIAQQSFVNWLLAQRPSSGAPPPSR (ends and bridges not checked) [Compound 60], the Agonist activity (EC50, M) in assay [1] is 1.1e-12 M; in assay [2], > 1e-06 M.
Take [NMeY][Aib]EGTFISDYSIALDR[Aib]AQ[Aib]N[αMeF]VNWLLAQRPSSGAPPPSR (ends and bridges not checked) [Compound 98]: the Agonist activity (EC50, M) in assay [1] was 1.4e-12 M; in assay [2], > 1e-06 M.
For the molecule Y[Aib]EGTVVSLYSK([Gly-Gly-Gly-Gly-Stearoyl])[Aib]LDRQAQ[Aib]EFVRWLLAQR (ends and bridges not checked) [Compound 258], the figures for the Agonist activity (EC50, M) in assay [1] and in assay [2] were 9.2e-11 M and > 1e-06 M, respectively.
As for [NMeY][Aib]EGTFISDYSI[dIva]LDR[Aib]AQQD[αMeF]VNWLLAQRPSSGAPPPSR (ends and bridges not checked) [Compound 81], the values for the Agonist activity (EC50, M) in assay [1] and in assay [2] were 1.5e-12 M and > 1e-06 M, respectively.
On to [NMeY][Aib]EGTFISDYSI[dIva]LDR[dIva]AQ[dIva]NFVNWLLAQRPSSGAPPPSR (not fully specified (N-terminus, C-terminus); ends and bridges not checked) [Compound 103], for which the results for the Agonist activity (EC50, M) in assay [1] and in assay [2] were 1.3e-12 M and > 1e-06 M, respectively.
For Me-Y[Aib]EGTFISDYSIALDRIAQ[Aib]S[αMeF]VNW[Iva]LAQRPSSGAPPPSR (not fully specified (residue 1, C-terminus); ends and bridges not checked) [Compound 125], the Agonist activity (EC50, M) was 1.8e-12 M in assay [1] and > 1e-06 M in assay [2].
[NMeY][Aib]EGTFISDYSIALDR[Aib]AQ[Aib]N[αMeF]VNW[Iva]LAQRPSSGAPPPSR (ends and bridges not checked) [Compound 114] had an Agonist activity (EC50, M) in assay [1] of 1e-12 M.
In the case of Y[Aib]EGTVVSLYSK([Gly-Gly-Gly-Gly-Stearoyl])[Aib]LDRQAQ[Aib]EFVRWLLAQR (ends and bridges not checked) [Compound 257], the Agonist activity (EC50, M) in assay [1] was 9e-11 M; in assay [2], > 1e-06 M.
On to [NMeY][Aib]EGTFISDYSIALDRIAQQS[αMeF]VNW[Iva]LAQRPSSGAPPPSR (not fully specified (C-terminus); ends and bridges not checked) [Compound 75], for which the figures for the Agonist activity (EC50, M) in assay [1] and in assay [2] were 1.4e-12 M and > 1e-06 M, respectively.
Turning to Y[Aib]EGTFISDYSK([PEG(2)-C20 diacid])ALDRIAQQNFVNW[Iva]LAQRPSSGAPPPS (not fully specified (C-terminus); ends and bridges not checked) [Compound 402], the values for the Agonist activity (EC50, M) in assay [1] and in assay [2] were 7.8e-11 M and > 1e-06 M, respectively.
For Y[Aib]EGTVVSLYSK([Gly-Gly-Gly-Gly-C20 diacid])[Aib]LDRQAQ[Aib]EFVRWLLAQR (ends and bridges not checked) [Compound 256], the Agonist activity (EC50, M) in assay [1] is 3.1e-10 M; in assay [2], > 1e-06 M.
For the molecule [NMeY][Aib]EGTFISDYSIALDRIAQ[Aib]N[αMeF]VNW[Iva]LAQRPSSGAPPPSR (not fully specified (C-terminus); ends and bridges not checked) [Compound 76], the Agonist activity (EC50, M) was 1.5e-12 M in assay [1] and > 1e-06 M in assay [2].
On the same counts, the results for [NMeY][Aib]EGTFISDYSIALDR[Aib]AQ[Aib]NFVNWLLAQRPSSGAPPPSR (ends and bridges not checked) [Compound 82] are 1.4e-12 M and 1e-07 M.
Y[Aib]EGTFISDYSK([PEG2′-pentadecanoyl])ALDRIAQQDFVNWLLAQRPSSGAPPPSR (ends and bridges not checked) [Compound 187] yielded an Agonist activity (EC50, M) in assay [1] of 1.2e-11 M.
Take [NMeY][Aib]EGTFISDYSI[dIva]LDRIAQQDFVNWLLAQRPSSGAPPPS (ends and bridges not checked) [Compound 63]: the Agonist activity (EC50, M) in assay [1] is 1.2e-12 M; in assay [2], > 1e-06 M.
Consider [NMeY][Aib]EGTFISDYSIALDRIAQ[Aib]DFVNW[Iva]LAQRPSSGAPPPSR (ends and bridges not checked) [Compound 123], for which the Agonist activity (EC50, M) was 1.3e-12 M in assay [1] and > 1e-06 M in assay [2].
For [NMeY][Aib]EGTFISDYSI[dIva]LDR[Aib]AQ[Aib]NFVNW[Iva]LAQRPSSGAPPPSR (ends and bridges not checked) [Compound 85] the same measures were 1.1e-12 M and > 1e-06 M.
For [NMeY][Aib]EGTFISDYSI[Iva]LDRIAQQD[αMeF]VNWLLAQRPSSGAPPPSR (not fully specified (C-terminus); ends and bridges not checked) [Compound 74] the same measures were 1.4e-12 M and > 1e-06 M.
[NMeY][Aib]EGTFISDYSIALDRIAQQSFVNW[Iva]LAQRPSSGAPPPSR (not fully specified (N-terminus, C-terminus); ends and bridges not checked) [Compound 67]: the Agonist activity (EC50, M) was 1.4e-12 M in assay [1] and > 1e-06 M in assay [2].
On to Y[Aib]EGTVVSLYSK([Gly-Gly-Gly-Gly-C20 diacid])[Aib]LDRQAQ[Aib]EFVK(Ac)WLLAQR (ends and bridges not checked) [Compound 259], for which the Agonist activity (EC50, M) in assay [1] was 1.2e-10 M; in assay [2], > 1e-06 M.
For Y[Aib]EGTFISDYSK([PEG(2)-C20 diacid])ALDRIAQQNFVNW[Iva]LAQRPSSGAPPPS (not fully specified (C-terminus); ends and bridges not checked) [Compound 406] the same measures were 3.2e-10 M and > 1e-06 M.
With [NMeY][Aib]EGTFISDYSI[dIva]LDRIAQ[Aib]NFVNWLLAQRPSSGAPPPSR (ends and bridges not checked) [Compound 83], the Agonist activity (EC50, M) came to 1.7e-12 M in assay [1] and 1.7e-07 M in assay [2].
For Y[Aib]EGTVVSLYSK([Gly-Gly-Gly-Gly-Stearoyl])[Aib]LDRQAQ[Aib]EFVK(Ac)WLLAQR (ends and bridges not checked) [Compound 261] the same measures were 5.5e-11 M and > 1e-06 M.
For [NMeY][Aib]EGTFISDYSIALDRIAQQD[αMeF]VNWLLAQRPSSGAPPPS (ends and bridges not checked) [Compound 62] the same measures were 9.9e-13 M and > 1e-06 M.
